According to US20040258747A1 (G GASLINI CHILDREN S HOSPITAL, published 2004):
Ends that are not written are not given here.

Biological target: T1, CD13 (aminopeptidase N) as expressed on THP-1 cells (human acute monocytic leukemia) (human, UniProt P15144 2-967)
T1 construct: whole, on cells; The CD13 form on THP-1 is recognised by WM15 but not by the NGR liposomes
Experiment: FACS of doxorubicin fluorescence, THP-1 cells 1 h at 4 C

T1 sequence (P15144 2-967): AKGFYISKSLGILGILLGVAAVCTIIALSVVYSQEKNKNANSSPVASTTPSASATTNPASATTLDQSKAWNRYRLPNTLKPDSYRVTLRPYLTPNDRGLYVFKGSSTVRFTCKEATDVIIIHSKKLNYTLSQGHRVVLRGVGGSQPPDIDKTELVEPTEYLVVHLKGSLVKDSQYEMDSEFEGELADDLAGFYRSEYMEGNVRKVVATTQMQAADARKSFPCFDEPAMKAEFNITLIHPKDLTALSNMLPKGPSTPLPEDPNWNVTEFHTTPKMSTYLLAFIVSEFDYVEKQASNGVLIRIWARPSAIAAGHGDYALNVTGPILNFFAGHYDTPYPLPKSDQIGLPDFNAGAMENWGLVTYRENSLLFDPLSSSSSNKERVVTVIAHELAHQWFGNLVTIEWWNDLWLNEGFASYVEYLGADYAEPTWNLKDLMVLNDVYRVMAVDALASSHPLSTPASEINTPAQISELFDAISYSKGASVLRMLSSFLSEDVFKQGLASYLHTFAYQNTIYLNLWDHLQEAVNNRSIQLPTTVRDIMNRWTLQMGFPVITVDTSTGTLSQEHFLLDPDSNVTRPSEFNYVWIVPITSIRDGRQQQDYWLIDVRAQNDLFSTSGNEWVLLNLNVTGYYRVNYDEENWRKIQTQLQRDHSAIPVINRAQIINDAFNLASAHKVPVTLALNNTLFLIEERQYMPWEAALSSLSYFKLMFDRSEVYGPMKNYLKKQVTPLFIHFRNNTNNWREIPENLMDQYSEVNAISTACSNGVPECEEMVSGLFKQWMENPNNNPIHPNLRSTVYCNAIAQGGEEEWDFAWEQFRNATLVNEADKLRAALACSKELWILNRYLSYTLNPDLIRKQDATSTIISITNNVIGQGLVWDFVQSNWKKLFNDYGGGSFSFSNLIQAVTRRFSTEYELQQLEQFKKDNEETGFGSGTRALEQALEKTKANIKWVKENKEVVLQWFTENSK

binding result: no binding
B1: ARA-targeted (sham-targeted) sterically stabilized liposomal doxorubicin (ARA-SL[DXR]): control peptide GARAGGVRSSSRTPSDKYC coupled to the liposome surface (peptide)
peptide: GARAGGVRSSSRTPSDKYC(PEG2000‑DSPE‑MAL (liposome))
modifications: not fully specified; also: on surface of doxorubicin-loaded sterically stabilized liposome
notes: Control formulation; Same liposome as NGR-SL[DXR], with NGR replaced by ARA in the peptide; also called mismatched peptide ARA
